Results on 30 sequences are retold here after the nanobody polyreactivity screen of Harvey et al. (2022).

This data set is described as follows: yeast display, Sf9 membrane polyspecificity reagent, FACS + sequencing; frameworks hold sequencing errors. A digest of the protocol: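 In a synthetic yeast display library (Saccharomyces cerevisiae BJ5465), nanobody expression was induced with galactose for 36–48 hours. FACS gates were set low and high (top ~1%) using anti-HA fluorescence for expression and streptavidin fluorescence for binding of the Sf9 membrane reagent. Each polyreactivity label is drawn from the gate of origin.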
On to “QVQLVESGGGLVQAGGSLRLSCAASGFIFYSNAMGWYRQEPGKERELVAAITSGGGSTYYADSVKGRFTISRDNAKNTVYLQMNSLKPEDTAVYYCAVSIGRYPYRYGYWGQGTQVTVSS”, for which the “polyreactivity (PSR sort gate)” value is on record as “high polyreactivity”.

With “QVQLVESVGGLVQAGGSLRLSCAASGSILVSYAMGWSRQAPGKERELGPAITQGGGSTYYADCVKGRFTFSRDNAKNTVYLQMNSLKPEDTAVYYCSVDGLSDDRYSAGGDYWGQGTQVTVSS”, the “polyreactivity (PSR sort gate)” value was “low polyreactivity”. With “QVQLVESGGGLLQAGGSLRLSCAASGSTFRAYTMGGYRPAPGKVREFVASITRSGGSTNYADSVKGRFTISRDNAKNTVYLQMNSLKPEDTAGYYCAAGYWRIHYQHFRSRDYWGQGTQVTVSS”, the “polyreactivity (PSR sort gate)” value is on record as “high polyreactivity”. The value for “QVQLVESGGGLVQAGGSLRLSCAASGSIFRDNAMGWYLQAPGKERELVASISRRGGSTYYADSVKGRFTISRDNAKNTVYLQMNSLKPEDTAVYYCAARAVGGTVPTRYDYWGQGTQVTVSS” was “high polyreactivity”; that for “QVQLVESGGGLVQAGGSLRLSCAASGIIFPLYAMGWYRQAPGKDRELVADITRVGSTYYADSVKGRFTISRDNAKNTVYLQMNSLKPEDTAVYYCNKQKRWTYSHYFPTTYDYWGQGTQVTVSS” was “high polyreactivity”; that for “QVQLEESGGGLVQAGGSLRLSCAASGITFRAYAMGWYRQAPGKERELVAAITGRGGRTYYADSVKGRFTISRDNAKNTVYLQMNSLKPEDPAVYYCNAYLWRVNQTYDYWGQGTQVTVSS” was “high polyreactivity”. The value for “QVQLVESGGGLVQAGGSLRLTCAASGSIFDKNVMGSYRQAPGKERELVAAISSSGGSTYYADSVKGRFTISRDIAKNTVYLQMNSLKPVDSAVYYCAKVPGRDRADRYWDHYSHDYWGQGTQVTVSS” was “high polyreactivity”; that for “QVQLVESGGGLVQAGGSLRLSCAASGSIFYDKAMGWYRQAPGKERELVAVISNSGRTYYADSVKGRFTISRDNAKNTVYLQMNSLKPEDTAVYYCWGQVTQVTVSS” was “low polyreactivity”. The value for “QVQLVESGGGLVQAGGSLRLSCAASGIIFYVNAMGWYRQAPGKERDLVAAITFGGDSTYYADSVKGRFTISRDNAMNTVSVQMNSLKPEDTAVYYCATDGDPAYPEMEYLGQGTQVTVSS” was “low polyreactivity”; that for “QVQLVESGGGLVQAGGSLRLSCAASGFTFRVNAMGWYRQAPGKERELVAAISWTGGSTYYADSVKGRFTISRDNAKNTVYLQMNSLKPEDTAVYYCATRFGGRYNEFGFWGQGTQVTVSS” was “low polyreactivity”; that for “QVQLVESGGGLVQAGGSLRLSCAASGIIFWRYAMGWYRQAPGKERELVAAIRYRAGSTYYADSVKGRFTISRDNAKNTVYLQLNSLKPEDTAVYYCAAGWWTSPDRRGGDYWGQGTQVTVSS” was “high polyreactivity”. As to “QVQLVESGGGLVQAGGSLRLSCAASGSTFRPNAMGWYRQAPGKERELVAAISRSGVSTYYADSVKGRFTISRDNAKNTVYLQMNSLKPEDTAVYYCARRYTGRPVLRESWGQGTQVTVSS”, the “polyreactivity (PSR sort gate)” value is “low polyreactivity”.

As for “QVQLVESGGGLVQAGGSLRLSCAASGIIFTTNAMGWYRQAPGKERELVATITSGGGTYYADSVKGRFTISRDNAKNTVYLQMNSLKPVDTAVYYCAATPGWGPWIFDHSYVDFDYWGQGTQVTVSS”, the “polyreactivity (PSR sort gate)” value is recorded as “low polyreactivity”.

Consider “QVQLVESGGGLVQAGGSLRLSCSASGSTFWYYAMGWYRKAPGKERELVAAITRGASTNYADSVKGRFTISRDNAKNTVYLQMISLIPEDTAVYYCAAGPARWKGYYWGQGTQVTVSS”, for which the “polyreactivity (PSR sort gate)” value is given as “high polyreactivity”.

For the sequence “QVQLVESGGGLVQAGGSLRLSCAASGSIFYVYAMGWYRQAPGKERELVATIDWSGGSTYYADSVKGRFTISRDNAKNTVYLQMNSLKPEDTAVYYCAAPTEQDPFAPVAFYRYDYWGQGTQVTLSS”, the “polyreactivity (PSR sort gate)” value is “low polyreactivity”. The value for “QVQLVESGGGLVHAGGSLRLSCAASGRIFQYYAMGWYRQAPGKERELVAAIDQSGDTTYYADSVKGRFTISRDNAKNTVYLQMNSLKPEDTAVFYCAAGYDWAYHWVPQWMYFWGQGTQVTVSS” was “low polyreactivity”. The value for “QVHLVESGGGLVQAGGSLRLSCAASGSTFRHYAMGWYRQAPGKERELVAAISSRGGRTYYADSVKGRFTISRDNAKNTGYLQMNSQKPEDTAVYYCAADRFRLYVGGWWYDYWRQGTQVTVSS” was “high polyreactivity”; that for “QVQLLESGGGLFQAGGSLRLICAASGRIFDENAMGWYRQAPRKDREMVAAISWSGGITYYADSVKGRFTISRDYAKNNVYLQMNSLKPEDTAVYYCAADIFQGYTFYQGYPGGAGYWGQGTQVTVSS” was “low polyreactivity”; that for “QVQLVESGGGLVQAGGSLRLSCAASGGTFYTNVMGWYRQAPGKERELVAAITRSGGSTHYADSVKGRFTISRDNAKNTVYLQMNSLKPEDTAVYYCAVGSPYYDGMDYWGQGTQVTVSS” was “low polyreactivity”. The value for “QVQLVESGGGLVQAGGSLRLSCAASGRTSLVYAMGWYRQAPGKERQLVAAISRGGTTNYADSVKGRFTISRDNAKNTVYLQMNSLKPEDTAVYYCAARTIYHVRPMYYWGQGTQVTVSS” was “high polyreactivity”; that for “QVQLVESGGGLVQAGGSLRLSCAASGSTFRYYDRGWYRQAPGKERELVAAITTSGDDTYYADSVKRRFTISRDNAKTTVYLQMNSLKPEDTAVYYCAADGYGGHKYELESWGQGTQVTVSS” was “low polyreactivity”; that for “QVQLVESGGGLVQAGGSLRLSCAASGRTLGGYAMGWYRQAPGKERELVASITARGGSTYYADSVKGRFTISRDNAKNTVYLQMNSLKPEDTAVYYCNKRTRRTYDYWGQGTQVTVSS” was “high polyreactivity”.

On to “QVQLVESGGGLVQAGGSLRLSCAASGRTFYYYAMGRYRQAPGKEREFVASISYSGARTYYADSVKGRFTISRDNAKNTVYLQMNSLKPEDTAVYYCAASWRSGRGTYGYWGQGTQVTVSS”, for which the “polyreactivity (PSR sort gate)” value was “high polyreactivity”.

Regarding “QVQLVESGGRLVQAGGSLRLLGAASGRIIYYNAMGWYRPAPGKERELVAAISSIGGSTYADSVKGRFTISRDNAKNTVYLQMNSLKPEDTAVYYCAADGFKRLYTQVAHVRYDYWGQGTQVTVSS”, the “polyreactivity (PSR sort gate)” value is listed as “low polyreactivity”. Consider “QVQLVESAGGLVQAGGSLRLSCAASGSTFYRYAMGGSRQAPGKERELVAAISSSGGRTYYADSVKGRFTISRDNAKNTVYLQMNSLKPEDTAVYFCATRVGDFHRGKRKRYEYWGQGTQVTVSS”, for which the “polyreactivity (PSR sort gate)” value was “high polyreactivity”. For “QVQLEESGGGLVQAGGSLRLSCAASGSTFLQYPMGWYRQATGKQRELVAAISWRAGSTYYADSVKGRFTISRDTAKNTVYLQMNTLKPEDTAVNYCDADGNRWRYELDDYDYWGQGTQVTGSS”, the “polyreactivity (PSR sort gate)” value was “low polyreactivity”. The value for “QVQLVESGGGLVQAGGSLRLSCAASGSIFAKNAMGWYRQAPGKERELVAAIDLNGGSTYYADSVKGRFTISRDNAKNTVYLQMNSLKPEDTAVYYCADYYGHSSVIRSSPEYDSWGQGTQVTVSS” was “low polyreactivity”. The value for “QVQLVDSGGGLVQAGGSLRLSCAASGINFASYAMGWYRQAPGKEMEIVAAISRSGSSTYYADSVKGRFTISRDNAKYTVYLQMNSLKPEDTAVYYCARARSGGSHREYYWGQGTQVTVSS” was “high polyreactivity”. The value for “QVQLVESGGGLVQAGGSLRLICAASGSTFGGNVMGWYRQAPGKERELVAAINWSGGRTYYADSVKGRFTISRDNAKNTVYLQMNSLKPEDTAVYYCAADGGQNGMNYWGQGTQVTVSS” was “high polyreactivity”; that for “QVQLVESGGGLVQAGGSLRLSCAASGSTFLLNAMGWYRPAPGKERELVAAITWTGGSTYYADSVKGRFTISRDNAKNTVYLQMNILKPEDTAVYYCAAEHYEYWRELVTSEYDYWGKGTQVTVSS” was “low polyreactivity”.
